Consider one substance from patent publication US20110064726A1.

Assay [1] deals with cynomolgus monkey IgE (cynomolgus monkey). Put plainly: capture ELISA, antibody coated; Test 2, Cyno 1 serum. A general note: ELISA stands for enzyme-linked immunosorbent assay.
The target is the same in assay [2]. Put plainly: capture ELISA, antibody coated; Test 2, Cyno 5 serum.
The target is the same in assay [3]. The assay can be described thus: capture ELISA, antibody coated; Test 1, Cyno 7 serum.
Assay [4] shares this target. The assay can be described thus: capture ELISA, antibody coated; Test 1, Cyno 1 serum.
Assay [5] has the same target. Put plainly: capture ELISA, antibody coated; Test 1, Cyno 3 serum.
Assay [6] has the same target. Put plainly: capture ELISA, antibody coated; Test 2, Cyno 3 serum.
For assay [7] the target is unchanged. The assay can be described thus: capture ELISA, antibody coated; Test 1, Cyno 2 serum.
Assay [8] has the same target. Put plainly: capture ELISA, antibody coated; Test 2, Cyno 7 serum.
Assay [9] has the same target. The assay can be described thus: capture ELISA, antibody coated; Test 2, Cyno 2 serum.
The target is the same in assay [10]. Put plainly: capture ELISA, antibody coated; Test 1, Cyno 5 serum.

Consider E25 (omalizumab) (antibody), for which the IgE concentration detected in assay [1] came out at 146 ng/mL; in [2], 252 ng/mL; in assay [3], 0 ng/mL; in assay [4], 172 ng/mL; in assay [5], 166 ng/mL; in assay [6], 135 ng/mL. For the same substance, the IgE concentration detected in assay [7] came out at 52 ng/mL; in assay [8], 0 ng/mL; in assay [9] it was 104 ng/mL; in assay [10], 232 ng/mL.
